Sequences and labels used below:
B1: GpH7-B3 variant S324_11K/GpL16-k0 (antibody, human IgG1, kappa)
heavy: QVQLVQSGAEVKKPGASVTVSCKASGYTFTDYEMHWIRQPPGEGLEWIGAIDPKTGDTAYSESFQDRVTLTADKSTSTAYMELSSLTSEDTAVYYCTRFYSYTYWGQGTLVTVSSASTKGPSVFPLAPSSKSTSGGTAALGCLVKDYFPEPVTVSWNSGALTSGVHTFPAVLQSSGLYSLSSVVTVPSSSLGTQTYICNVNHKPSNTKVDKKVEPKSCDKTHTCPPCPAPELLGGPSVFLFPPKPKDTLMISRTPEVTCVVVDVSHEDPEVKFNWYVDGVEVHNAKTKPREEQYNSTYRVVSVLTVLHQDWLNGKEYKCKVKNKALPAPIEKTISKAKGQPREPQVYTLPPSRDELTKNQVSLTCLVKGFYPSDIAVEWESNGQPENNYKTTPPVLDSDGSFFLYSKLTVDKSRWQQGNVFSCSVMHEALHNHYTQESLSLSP
light: DIVMTQSPLSLPVTPGEPASISCQASESLVHSNRNTYLHWYLQKPGQSPQLLIYKVSNRFSGVPDRFSGSGSGTDFTLKISRVEAEDVGVYYCSQNTHVPPTFGQGTKVEIERTVAAPSVFIFPPSDEQLKSGTASVVCLLNNFYPREAKVQWKVDNALQSGNSQESVTEQDSKDSTYSLSSTLTLSKADYEKHKVYACEVTHQGLSSPVTKSFNRGEC
notes: mutation in both H chains; also called Ho Ab S324_11K; S324K
B2: GpH7-B3 variant S324_12R/GpL16-k0 (antibody, human IgG1, kappa)
heavy: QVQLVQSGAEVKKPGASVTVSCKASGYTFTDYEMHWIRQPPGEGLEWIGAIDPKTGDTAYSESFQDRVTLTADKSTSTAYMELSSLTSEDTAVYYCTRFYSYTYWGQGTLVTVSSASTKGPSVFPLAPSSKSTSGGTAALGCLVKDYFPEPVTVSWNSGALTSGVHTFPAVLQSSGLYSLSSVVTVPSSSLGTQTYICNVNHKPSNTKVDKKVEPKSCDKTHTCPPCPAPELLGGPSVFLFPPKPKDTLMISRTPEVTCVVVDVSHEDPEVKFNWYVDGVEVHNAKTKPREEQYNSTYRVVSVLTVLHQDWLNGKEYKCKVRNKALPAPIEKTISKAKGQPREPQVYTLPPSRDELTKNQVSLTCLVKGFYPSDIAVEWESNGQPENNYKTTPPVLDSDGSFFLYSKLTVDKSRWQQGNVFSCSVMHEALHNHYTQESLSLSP
light: DIVMTQSPLSLPVTPGEPASISCQASESLVHSNRNTYLHWYLQKPGQSPQLLIYKVSNRFSGVPDRFSGSGSGTDFTLKISRVEAEDVGVYYCSQNTHVPPTFGQGTKVEIERTVAAPSVFIFPPSDEQLKSGTASVVCLLNNFYPREAKVQWKVDNALQSGNSQESVTEQDSKDSTYSLSSTLTLSKADYEKHKVYACEVTHQGLSSPVTKSFNRGEC
notes: mutation in both H chains; also called Ho Ab S324_12R; S324R
B3: GpH7-B3 variant S324_18N/GpL16-k0 (antibody, human IgG1, kappa)
heavy: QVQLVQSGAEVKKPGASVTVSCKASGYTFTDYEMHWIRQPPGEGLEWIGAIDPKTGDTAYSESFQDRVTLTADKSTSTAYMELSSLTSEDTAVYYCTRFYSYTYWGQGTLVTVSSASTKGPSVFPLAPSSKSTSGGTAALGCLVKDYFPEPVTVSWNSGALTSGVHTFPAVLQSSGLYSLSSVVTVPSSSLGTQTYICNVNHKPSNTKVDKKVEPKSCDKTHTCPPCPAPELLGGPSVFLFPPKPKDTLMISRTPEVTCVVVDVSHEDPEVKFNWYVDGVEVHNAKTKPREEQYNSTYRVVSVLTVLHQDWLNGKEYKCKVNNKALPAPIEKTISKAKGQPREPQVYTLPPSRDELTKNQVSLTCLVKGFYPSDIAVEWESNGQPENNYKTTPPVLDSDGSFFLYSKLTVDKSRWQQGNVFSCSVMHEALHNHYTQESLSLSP
light: DIVMTQSPLSLPVTPGEPASISCQASESLVHSNRNTYLHWYLQKPGQSPQLLIYKVSNRFSGVPDRFSGSGSGTDFTLKISRVEAEDVGVYYCSQNTHVPPTFGQGTKVEIERTVAAPSVFIFPPSDEQLKSGTASVVCLLNNFYPREAKVQWKVDNALQSGNSQESVTEQDSKDSTYSLSSTLTLSKADYEKHKVYACEVTHQGLSSPVTKSFNRGEC
notes: mutation in both H chains; also called Ho Ab S324_18N; S324N
B4: GpH7-B3 variant S324_19Q/GpL16-k0 (antibody, human IgG1, kappa)
heavy: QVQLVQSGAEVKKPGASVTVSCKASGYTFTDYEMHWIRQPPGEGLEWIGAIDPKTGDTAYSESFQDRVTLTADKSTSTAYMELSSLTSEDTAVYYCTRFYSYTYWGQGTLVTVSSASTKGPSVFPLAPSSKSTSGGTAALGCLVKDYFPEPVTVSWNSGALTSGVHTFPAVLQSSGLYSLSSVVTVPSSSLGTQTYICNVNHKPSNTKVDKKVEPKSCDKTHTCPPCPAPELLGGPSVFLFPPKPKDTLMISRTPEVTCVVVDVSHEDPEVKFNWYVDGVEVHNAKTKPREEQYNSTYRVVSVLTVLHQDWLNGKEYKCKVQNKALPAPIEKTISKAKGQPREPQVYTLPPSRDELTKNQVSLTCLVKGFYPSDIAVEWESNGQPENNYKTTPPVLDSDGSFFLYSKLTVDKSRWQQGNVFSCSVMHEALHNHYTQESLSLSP
light: DIVMTQSPLSLPVTPGEPASISCQASESLVHSNRNTYLHWYLQKPGQSPQLLIYKVSNRFSGVPDRFSGSGSGTDFTLKISRVEAEDVGVYYCSQNTHVPPTFGQGTKVEIERTVAAPSVFIFPPSDEQLKSGTASVVCLLNNFYPREAKVQWKVDNALQSGNSQESVTEQDSKDSTYSLSSTLTLSKADYEKHKVYACEVTHQGLSSPVTKSFNRGEC
notes: mutation in both H chains; also called Ho Ab S324_19Q; S324Q
B5: GpH7-B3 variant S324_15Y/GpL16-k0 (antibody, human IgG1, kappa)
heavy: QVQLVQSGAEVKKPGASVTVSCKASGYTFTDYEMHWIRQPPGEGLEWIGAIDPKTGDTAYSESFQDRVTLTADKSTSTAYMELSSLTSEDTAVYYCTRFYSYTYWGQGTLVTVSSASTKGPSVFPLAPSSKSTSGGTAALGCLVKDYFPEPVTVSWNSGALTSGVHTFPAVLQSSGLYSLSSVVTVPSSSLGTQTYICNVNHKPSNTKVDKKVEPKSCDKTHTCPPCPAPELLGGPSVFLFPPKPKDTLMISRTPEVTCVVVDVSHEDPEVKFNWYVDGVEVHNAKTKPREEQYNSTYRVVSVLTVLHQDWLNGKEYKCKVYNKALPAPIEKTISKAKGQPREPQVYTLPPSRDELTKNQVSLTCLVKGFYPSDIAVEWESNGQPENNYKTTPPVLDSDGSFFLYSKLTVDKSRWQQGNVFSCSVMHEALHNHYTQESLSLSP
light: DIVMTQSPLSLPVTPGEPASISCQASESLVHSNRNTYLHWYLQKPGQSPQLLIYKVSNRFSGVPDRFSGSGSGTDFTLKISRVEAEDVGVYYCSQNTHVPPTFGQGTKVEIERTVAAPSVFIFPPSDEQLKSGTASVVCLLNNFYPREAKVQWKVDNALQSGNSQESVTEQDSKDSTYSLSSTLTLSKADYEKHKVYACEVTHQGLSSPVTKSFNRGEC
notes: mutation in both H chains; also called Ho Ab S324_15Y; S324Y
B6: GpH7-B3 variant S324_16H/GpL16-k0 (antibody, human IgG1, kappa)
heavy: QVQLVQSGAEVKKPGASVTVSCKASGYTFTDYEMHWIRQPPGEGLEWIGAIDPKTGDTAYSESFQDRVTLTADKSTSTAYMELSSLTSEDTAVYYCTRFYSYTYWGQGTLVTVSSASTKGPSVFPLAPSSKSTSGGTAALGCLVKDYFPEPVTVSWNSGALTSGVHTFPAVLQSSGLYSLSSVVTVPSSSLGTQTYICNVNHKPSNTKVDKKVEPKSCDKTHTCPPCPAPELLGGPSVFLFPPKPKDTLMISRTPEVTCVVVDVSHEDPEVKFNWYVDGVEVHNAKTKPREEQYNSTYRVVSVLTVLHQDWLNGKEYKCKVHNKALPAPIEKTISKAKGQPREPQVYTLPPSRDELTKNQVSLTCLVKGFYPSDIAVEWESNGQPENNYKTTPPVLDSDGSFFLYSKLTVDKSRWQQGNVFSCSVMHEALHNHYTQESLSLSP
light: DIVMTQSPLSLPVTPGEPASISCQASESLVHSNRNTYLHWYLQKPGQSPQLLIYKVSNRFSGVPDRFSGSGSGTDFTLKISRVEAEDVGVYYCSQNTHVPPTFGQGTKVEIERTVAAPSVFIFPPSDEQLKSGTASVVCLLNNFYPREAKVQWKVDNALQSGNSQESVTEQDSKDSTYSLSSTLTLSKADYEKHKVYACEVTHQGLSSPVTKSFNRGEC
notes: mutation in both H chains; also called Ho Ab S324_16H; S324H
B7: GpH7-B3 variant S324_14T/GpL16-k0 (antibody, human IgG1, kappa)
heavy: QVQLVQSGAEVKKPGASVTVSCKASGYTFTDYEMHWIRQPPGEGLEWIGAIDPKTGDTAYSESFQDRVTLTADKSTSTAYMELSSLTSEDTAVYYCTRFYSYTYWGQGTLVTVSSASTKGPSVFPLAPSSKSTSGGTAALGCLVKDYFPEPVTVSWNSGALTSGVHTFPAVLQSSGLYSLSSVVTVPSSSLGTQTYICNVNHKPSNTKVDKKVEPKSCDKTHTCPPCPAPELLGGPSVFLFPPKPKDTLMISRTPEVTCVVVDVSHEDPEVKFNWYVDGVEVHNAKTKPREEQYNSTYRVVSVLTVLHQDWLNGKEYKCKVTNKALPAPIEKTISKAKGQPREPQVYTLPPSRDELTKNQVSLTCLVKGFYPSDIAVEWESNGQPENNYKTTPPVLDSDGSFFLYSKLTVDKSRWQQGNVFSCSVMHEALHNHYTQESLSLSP
light: DIVMTQSPLSLPVTPGEPASISCQASESLVHSNRNTYLHWYLQKPGQSPQLLIYKVSNRFSGVPDRFSGSGSGTDFTLKISRVEAEDVGVYYCSQNTHVPPTFGQGTKVEIERTVAAPSVFIFPPSDEQLKSGTASVVCLLNNFYPREAKVQWKVDNALQSGNSQESVTEQDSKDSTYSLSSTLTLSKADYEKHKVYACEVTHQGLSSPVTKSFNRGEC
notes: mutation in both H chains; also called Ho Ab S324_14T; S324T
B8: GpH7-B3 variant S324_20W/GpL16-k0 (antibody, human IgG1, kappa)
heavy: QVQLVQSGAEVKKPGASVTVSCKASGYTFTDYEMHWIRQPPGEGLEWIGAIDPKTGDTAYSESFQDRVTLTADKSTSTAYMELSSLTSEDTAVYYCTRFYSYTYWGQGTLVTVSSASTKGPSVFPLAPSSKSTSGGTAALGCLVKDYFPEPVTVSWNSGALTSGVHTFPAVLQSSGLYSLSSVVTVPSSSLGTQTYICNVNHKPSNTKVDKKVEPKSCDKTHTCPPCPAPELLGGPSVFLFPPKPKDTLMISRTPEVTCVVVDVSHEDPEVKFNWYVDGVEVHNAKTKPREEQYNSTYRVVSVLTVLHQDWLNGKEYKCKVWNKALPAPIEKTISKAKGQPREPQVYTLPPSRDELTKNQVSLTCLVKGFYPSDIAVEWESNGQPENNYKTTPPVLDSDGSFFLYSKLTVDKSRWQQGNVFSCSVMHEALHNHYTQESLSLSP
light: DIVMTQSPLSLPVTPGEPASISCQASESLVHSNRNTYLHWYLQKPGQSPQLLIYKVSNRFSGVPDRFSGSGSGTDFTLKISRVEAEDVGVYYCSQNTHVPPTFGQGTKVEIERTVAAPSVFIFPPSDEQLKSGTASVVCLLNNFYPREAKVQWKVDNALQSGNSQESVTEQDSKDSTYSLSSTLTLSKADYEKHKVYACEVTHQGLSSPVTKSFNRGEC
notes: mutation in both H chains; also called Ho Ab S324_20W; S324W

T1 sequence (P12314 16-292): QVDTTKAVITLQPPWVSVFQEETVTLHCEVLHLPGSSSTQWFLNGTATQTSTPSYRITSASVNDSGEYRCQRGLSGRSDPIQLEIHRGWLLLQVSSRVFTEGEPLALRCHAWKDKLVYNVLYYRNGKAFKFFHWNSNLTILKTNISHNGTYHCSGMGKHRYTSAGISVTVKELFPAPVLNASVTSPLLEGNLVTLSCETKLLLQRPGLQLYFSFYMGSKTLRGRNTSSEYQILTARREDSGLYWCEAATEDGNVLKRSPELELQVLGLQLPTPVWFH

The test has as its target T1, FcγRIa extracellular domain with C-terminal His tag (human, UniProt P12314 16-292).
T1 construct: extracellular domain; also called FcgRI; CD64; not shown: His tag at the C terminus
Nature of the test: SPR Biacore, relative FcγRIa binding vs GpH7-B3/GpL16-k0.
In the case of B1, the Ho/Con_1a is 100 % of HoCon Ab (=100).

With B2, the Ho/Con_1a was 101 % of HoCon Ab (=100).

For B3, the Ho/Con_1a was 111 % of HoCon Ab (=100).

On to B4, for which the Ho/Con_1a was 111 % of HoCon Ab (=100).

As for B5, the Ho/Con_1a is 112 % of HoCon Ab (=100).

With B6, the Ho/Con_1a was 111 % of HoCon Ab (=100).

Take B7: the Ho/Con_1a was 112 % of HoCon Ab (=100).

On to B8, for which the Ho/Con_1a is 112 % of HoCon Ab (=100).

These data come from US20180155451A1 (published 2018).
